Paper PMC11909739

Target: KS3AT3 (homodimeric KS-AT didomain fragment of DEBS module 3)
Assay: cryo-EM structure

- percent of KS3AT3 homodimer particles with one ACP (% of particles): 50.3
- percent of KS3AT3 homodimer particles with two ACPs (% of particles): 24.7
- percent of KS3AT3 homodimer particles with zero ACPs (% of particles): 25
Substance: ACP3 (standalone acyl carrier protein of DEBS module 3), holo form (domain or fragment)
